Source: patent US20150037348A1 (AbbVie / Abbott, published 2015)
Where “and” joins values, the source holds several entries; their conditions need not be identical. Equal values may be shown once. Read-outs that look alike come from different tables or passages of the source.

T1: recombinant human IL-12 (rhIL-12) (human, UniProt P29459 23-219; P29460 23-328)
T1 sequence (looked up) 1: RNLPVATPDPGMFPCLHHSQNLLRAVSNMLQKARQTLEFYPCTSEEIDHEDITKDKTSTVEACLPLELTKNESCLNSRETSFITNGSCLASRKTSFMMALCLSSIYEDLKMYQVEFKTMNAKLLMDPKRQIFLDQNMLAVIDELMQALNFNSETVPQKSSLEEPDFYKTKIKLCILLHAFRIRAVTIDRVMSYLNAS
T1 sequence (looked up) 2: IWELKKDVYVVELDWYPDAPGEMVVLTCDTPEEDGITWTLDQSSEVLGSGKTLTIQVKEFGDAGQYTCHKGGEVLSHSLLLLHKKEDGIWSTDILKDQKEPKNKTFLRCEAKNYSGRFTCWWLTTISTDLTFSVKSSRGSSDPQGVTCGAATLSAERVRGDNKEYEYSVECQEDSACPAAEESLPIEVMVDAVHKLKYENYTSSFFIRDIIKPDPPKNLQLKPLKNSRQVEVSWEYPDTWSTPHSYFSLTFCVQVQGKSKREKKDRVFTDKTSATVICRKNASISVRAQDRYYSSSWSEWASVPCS

T2: recombinant murine IL-12 (mouse, UniProt P43431 23-215; P43432 23-335)
T2 construct: rmIL12 of R&D Systems, Cat. No. 419-ML, in the BIAcore test; also called mouse IL-12; rmIL12
T2 sequence (looked up) 1: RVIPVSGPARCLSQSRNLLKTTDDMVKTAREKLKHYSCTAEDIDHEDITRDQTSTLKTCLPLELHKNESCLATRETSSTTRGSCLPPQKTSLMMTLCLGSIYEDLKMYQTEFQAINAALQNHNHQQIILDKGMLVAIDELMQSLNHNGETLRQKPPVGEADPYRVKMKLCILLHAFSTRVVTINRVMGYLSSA
T2 sequence (looked up) 2: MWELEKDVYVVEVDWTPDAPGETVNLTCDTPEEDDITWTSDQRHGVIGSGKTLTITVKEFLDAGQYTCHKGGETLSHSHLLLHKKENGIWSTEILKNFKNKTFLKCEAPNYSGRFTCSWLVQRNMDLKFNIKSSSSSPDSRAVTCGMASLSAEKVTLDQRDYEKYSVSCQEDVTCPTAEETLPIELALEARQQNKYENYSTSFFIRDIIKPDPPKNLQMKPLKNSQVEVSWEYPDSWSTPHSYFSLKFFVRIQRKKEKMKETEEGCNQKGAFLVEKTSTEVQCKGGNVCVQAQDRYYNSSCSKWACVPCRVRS

T3: murine IL-12 (mouse, UniProt P43431 23-215; P43432 23-335)
T3 construct: Purified or recombinant murine IL-12 (R&D Systems, Cat. No. 419-ML in the BIAcore test); also called mouse IL-12; rmIL12
T3 sequence (looked up) 1: T2 sequence (looked up) 1
T3 sequence (looked up) 2: T2 sequence (looked up) 2

T4: human IL-12 p40 subunit (free p40) (human, UniProt P29460 23-328)
T4 sequence (looked up): T1 sequence (looked up) 2

B1: J695 (antibody, human IgG1, V domains shown)
VH: QVQLVESGGGVVQPGRSLRLSCAASGFTFSSYGMHWVRQAPGKGLEWVAFIRYDGSNKYYADSVKGRFTISRDNSKNTLYLQMNSLRAEDTAVYYCKTHGSHDNWGQGTMVTVSS
VL: QSVLTQPPSVSGAPGQRVTISCSGSRSNIGSNTVKWYQQLPGTAPKLLIYYNDQRPSGVPDRFSGSKSGTSASLAITGLQAEDEADYYCQSYDRYTHPALLFGTGTKVTVLG
notes: human IgG1 with lambda light chain
B2: J695 (antibody, V domains shown)
VH: B1 VH
VL: B1 VL
notes: Human IgG1 with lambda light chain (detected with anti-human lambda); Made in CHO or COS cells

Assays:
[1] = target: T1, recombinant human IL-12 (rhIL-12); assay: cell-based or functional assay
[2] = target: T1, recombinant human IL-12 (rhIL-12); assay: cell-based or functional assay; remark: listed apart in the source
[3] = target: T1, recombinant human IL-12 (rhIL-12); assay: biomolecular interaction assay (BIAcore)
Protocol: (§1) Three independent experiments were performed, and the values shown are averages for the three experiments. From these measurements, the apparent dissociation (kd) and association (kₐ) rate constants were derived and used to calculate a Kd value for the interaction (see Table 10).

[4] = target: T1, recombinant human IL-12 (rhIL-12); assay: receptor binding assay, 125I-hIL-12 on PHA blasts
[5] = target: T1, recombinant human IL-12 (rhIL-12); assay: receptor binding assay, 125I-hIL-12 on PHA blasts; remark: listed apart in the source
Protocol: PHA blast cells isolated as described above, were washed once and resuspended in binding buffer to a cell density of 2×10⁷ cells/ml. […] The cell pellet was examined for cell bound radioactivity using a gamma counter. […] Incubations were carried out in duplicate.
Incubations were carried out in duplicate.

[6] = target: T1, recombinant human IL-12 (rhIL-12); assay: BIAcore, captured J695, soluble rhIL-12, mean of three experiments
Protocol: as §1

recombinant murine IL-12 = target: T2, recombinant murine IL-12; assay: BIAcore, COS J695 captured via goat anti-human IgG, cytokine in solution
Protocol: Before injection of the protein and immediately afterward, HBS buffer alone flowed through each flow cell. […] Cytokines were diluted in HBS running buffer and 50 μl aliquots were injected through the immobilized protein matrices at a flow rate of 5 μl/min. […] The net difference in baseline signal and signal after completion of cytokine injection was taken to represent the binding value of the particular sample. Biosensor matrices were regenerated using 100 mM HCl before injection of the next sample. To determine the dissociation constant (off-rate), association constant (on-rate), BIAcore kinetic evaluation software (version 2.1) was used.

dog IL-12 = dog IL-12 (dog); assay: cell-based or functional assay
murine IL-12 = target: T3, murine IL-12; assay: neutralization bioassay with non-human IL-12 (murine 2D6 cell proliferation)
Protocol: 2D6 cells were washed once and resuspended in RPMI complete medium containinγβME to a cell density of 1×10⁵ cells/ml. […] The culture contents were harvested and counted by liquid scintillation counting. All samples were assayed in duplicate.

human IGF-I = human IGF-I (human, UniProt P05019 49-118); assay: competition ELISA: soluble cytokine against J695 (100 ng/ml) binding to immobilized human IL-12
Protocol: (§2) The plates were washed 4 times and incubated for 1 h at room temperature with 100 μl mouse anti-human lambda-HRP (1:500 in PBS-T/BSA, Southern Biotech. Ass. Inc., Birmingham, Ala.). The plates were washed 4 times and developed with ABTS (Kirkegaard & Perry Lab, Gaithersburg, Md.) for 20-30 minutes in the dark. The OD₄₅₀ nm was read using a microplate reader (Molecular Devices, Menlo Park, Calif.).

human LIF = human LIF (human, UniProt P15018 23-202); assay: as above
Chain of human LIF (P15018 23-202 limits assumed): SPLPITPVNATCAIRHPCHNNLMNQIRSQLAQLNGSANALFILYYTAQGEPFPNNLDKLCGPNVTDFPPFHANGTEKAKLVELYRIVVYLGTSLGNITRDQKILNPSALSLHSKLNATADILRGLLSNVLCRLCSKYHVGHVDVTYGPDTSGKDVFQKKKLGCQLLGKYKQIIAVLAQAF
Protocol: as §2

[7] = target: T4, human IL-12 p40 subunit (free p40); assay: competition ELISA: soluble human IL-12 p40 (2 nM) against J695 binding to immobilized human IL-12
Protocol: as §2

Binder | PHA assay IC50 (M) p70:p40 1:0 [1] | PHA assay IC50 (M) p70:p40 1:50 [1] | PHA blast IC50 [2] | Kd [3] | IC50 [4] | IC50 [5] | Kd [6] | binding result (recombinant murine IL-12) | activity on dog IL-12 in the neutralization bioassay, against human IL-12 (dog IL-12) | binding result (murine IL-12) | binding result (human IGF-I) | binding result (human LIF) | binding result [7]
B1 | 1e-11 M | 3.5e-11 M | 0.0058 nM | 0.0974 nM | 0.011 nM | 0.034 nM and 0.03 nM | 0.0974 nM and 0.014 µg/mL | no binding | – | – | – | – | –
B2 | – | – | – | – | – | – | – | – | ~35 fold | no binding | no binding (tested: 2 nM) | no binding (tested: 2 nM) | binds
